This is an account of results in US20240190946A1 (AUGMENTA BIOWORKS, published 2024).

Bounds are passed on as bounds.

Assay [1] concerns the target T1, Sino CoV2 S2 (spike protein 2) (SARS-COV-2, UniProt P0DTC2 686-1213).
T1 construct: domain: S2 (spike protein 2)
Nature of the assay: ForteBio; ForteBio.

In assay [2] the target is T2, Sino CoV2 RBD (Receptor Binding Domain) (SARS-COV-2, UniProt P0DTC2 319-541). The assay is described as follows: ForteBio; ForteBio.
Assay [3] has as its target SARS-COV-2 spike (1+2) protein on pseudotyped lentivirus (SARS-COV-2, UniProt P0DTC2 14-1273). Nature of the assay: cell-based or functional assay.
Assay [4] addresses T2, Sino CoV2 RBD (Receptor Binding Domain). The assay is described as follows: Carterra LSA.
The next assay has as its target T3, Sino SARS1 S1 (SARS1, UniProt P59594 14-667).
T3 construct: domain: S1
Nature of the assay: Carterra LSA.

Assay [5] deals with T1, Sino CoV2 S2 (spike protein 2). Nature of the assay: Carterra LSA; Carterra LSA.
The target of assay [6] is T2, Sino CoV2 RBD (Receptor Binding Domain). The assay is described as follows: Carterra LSA; Carterra LSA.
In assay [7] the target is T1, Sino CoV2 S2 (spike protein 2). The assay is described as follows: Carterra LSA.
Another assay addresses T4, NAC CoV2 S1 (SARS-COV-2, UniProt P0DTC2 14-674).
T4 construct: domain: S1
The assay is described as follows: instrument not stated.

The target in assay [8] is T2, Sino CoV2 RBD (Receptor Binding Domain). Nature of the assay: instrument not stated.

B1: SC2 antibody 3396 (antibody, V domains shown)
VH: GVQLVESGGGLVQPGRSLRVSCAASGFTFADYAMHWVRQAPGKGLEWVSGISWNSGNIAYADSVKGRFTISRDNAKNSLYLQMDSLRPDDTALYYCVKASTLYYYFYMDVWGKGTTVTVSS
VL: QSALTQPPSASGSPGQSVTISCTGTSSDVGGYDYVSWYQQHPGKAPKFMIYEVSKRPSGVPDRFSGSKSGNTASLTVSGLQAEDEADYYCCSYAGSNNYVFGTGTKVTVLG
notes: also called Anti-SARS-COV-2 antibody 3396
Regarding B1, the Kd in [1] was 122 nM; in assay [2], 22 nM. Besides, the “neutralization of infection of HEK293 cells by spike-pseudotyped lentivirus” value (“neutralization” for short) in assay [3] is roughly 50%.

B2: SC2 antibody 3908 (antibody, V domains shown)
VH: EVQLVESRGGLVQPGGSLRLSCAATGFTLSSFDMHWVRQATGKGLEWVSAIGTAGDTYYPGSVKGRFTISRENAKNSLYLQMNSLRAGDTAVYYCARGTWLRDYNFWSGYNYYFDYWGQGTLVTVSS
VL: QSALTQPPSASGSPGQSVTISCTGTSSDVGGYIYVSWYQQHPGKAPKLIIYEVSKRPSGVPDRFSGSKSGNTASLTVSGLQAEDEADYYCSSYADSNNYVFGSGTRVTVLG
notes: also called Anti-SARS-COV-2 antibody 3908
As for B2, binding in assay [1] was characterised by a dissociation constant (Kd) of 74 nM.

B3: SC2 antibody 3969 (antibody, V domains shown)
VH: QVQLVESGGGVVQPGRSLRLSCAASGFTFSSYGMHWVRQAPGKGLEWVAVISYDGSNKYYADSVKGRFTISRDNSKNTLYLQMNSLRAEDTAVYYCAKGVGDYAVWGQGTLVTVSS
VL: QSALTQPASVSGSPGQSITISCTGTNSDIGGYDYVSWYQQHPGKAPKLMIFDVNNRPSGVSNRFSGSKSGNTASLTISELQSADEADYFCSSFSTRNSLVVFGGGTKLTVL
notes: also called Anti-SARS-COV-2 antibody 3969
On to B3, for which the Kd in assay [4] worked out at 105 nM; with Sino SARS1 S1, 28 nM.

B4: anti-SARS-COV-2 (SC2) antibody 3417 (antibody, V domains shown)
VH: QVQLQESGPGLLKPSQTLSLTCTVSGVSIRNSNYFWNWIRRPAGKGLEWIGRMHSGGTTNYNPSLKSRVTVSSDAARNQFSLELTSVTAADTAVYYCARDDPLNRFAAFQIWGRGTLVTVSS
VL: QSVLTQPPSVSAAPGQKVTISCSGSSSNIGNKYISWYQQLPGTAPKLLIYDNNKRPSGIPDRFSGSKSGTSATLGITGLQTGDEADYYCGTWDSSLSVFYVFGTGTKVTVLG
notes: also called SC2 Ab 3417
Regarding B4, the Kd in [2] is less than 0.001 nM; in [5], 63 nM; in [6] it was 7.2 nM. For the same molecule, in assay [3], the “neutralization” value is roughly 70%.

B5: SC2 antibody 3947 (antibody, V domains shown)
VH: QLQLQESGSGLVKPSQTLSLTCAVSGGSVSSGGYSWSWIRQPPGKGLEWIGYIYDSGITSYNPSLKSRLTISIDRSKNQFSLGLSSVTAADTAVYYCARVRRNTSGSFSTGHFDYWGQGTLVTVSS
VL: QSVLTQPPSVSASPGQTVTISCSGSTSNIGGNYVSWYQHLPGTAPKLLIYDSNKRPSGIPDRFSGSKSGTSATLGITGLQTEDEADYYCGTWDYRLSGAVFGGGTKLTVL
notes: also called Anti-SARS-COV-2 antibody 3947
In [7], B5 yielded a Kd of 25 nM.

B6: SC2 antibody 4083 (antibody, V domains shown)
VH: QLQLQESGSGLVKPSQTLSLTCAVSGGSVSSGGYSWSWIRQPPGKGLEWIGYIYDSGITSYNPSLKSRLTISIDRSKNQFSLGLSSVTAADTAVYYCARVRRNTSGSFSTGHFDYWGQGTLVTVSS
VL: QSVLTQPPSVSAVPGQKVTISCSGNNSNIGNNLVSWYQQLPGTAPKLLIYNNNRRPSGIPDRFSGSKSGTSATLGITGLQTGDEAAYYCAARDSSLSAVVFGGGTKLTVL
notes: also called Anti-SARS-COV-2 antibody 4083
B6 showed a Kd in assay [7] of 41 nM.

B7: SC2 antibody 3387 (antibody, V domains shown)
VH: QVQLVQSGAEVMQVGASVKVSCKASGYTFTSYGISWVRQAPGQGLEWMGWINTYNGNTNYAQKLQGRVTMTTDTSTTTAYMELRSLRSDDTAVYYCARVAVGYCSGGSCYYFDYWGQGTLVTVSS
VL: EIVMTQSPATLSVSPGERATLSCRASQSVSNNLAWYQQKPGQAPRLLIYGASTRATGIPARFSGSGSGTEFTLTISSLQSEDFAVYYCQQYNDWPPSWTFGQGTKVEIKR
As to B7, in assay [3], the “neutralization” value is roughly 45%.

B8: SC2 antibody 3705 (scFv)
scFv: LEIVMTQSPATLSVSPGERATLSCRASQSVSNNLAWYQQKPGQAPRLLIYGASTRATGIPARFSGSGSGTEFTLTISSLQSEDFAVYYCQQYNDWPPSWTFGQGTKVEIKGGGGSGGGGSGGGGSQVQLVQSGAEVMQVGASVKVSCKASGYTFTSYGISWVRQAPGQGLEWMGWINTYNGNTNYAQKLQGRVTMTTDTSTTTAYMELRSLRSDDTAVYYCARVAVGYCSGGSCYYFDYWGQGTLVTVSSGGGGSGGQHHHHHHGAEQKLISEEDLGSGKPIPNPLLGLDSTS
notes: also called Anti-SARS-COV-2 antibody 3705
Regarding B8, the Kd with NAC CoV2 S1 turned out to be 57 nM; in [8], 1.3 nM. The “neutralization” value in [3] worked out at 100%.

B9: SC2 antibody 3388 (antibody, V domains shown)
VH: QVQLVESGGGVVQPGRSLRLSCAASGFTFSSYAMHWVRQAPGKGLEWVAVISYDGSNKYYADSVKGRFTISRDNSKNTLYLQMNSLRAEDTAVYYCAREGNIVATISLDYWGQGTLVTVSS
VL: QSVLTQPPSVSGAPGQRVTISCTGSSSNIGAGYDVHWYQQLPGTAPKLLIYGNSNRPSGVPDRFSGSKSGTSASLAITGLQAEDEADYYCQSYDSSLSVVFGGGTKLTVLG
notes: also called Anti-SARS-COV-2 antibody 3388
In turn, B9 registered a Kd in [5] of 10 nM.

A word on the Kd: it is the concentration at which binding is half-saturated. Low values mean a tighter complex, high ones a looser complex.
